Here are results for 83 variants from the RNAGym collection of RNA variant scans (doi:10.1073/pnas.2313332121).

Fewer inactive variants are shown than the library holds.

B1: TPR 5TU (parent)
chain: GGAUCUUCUCGAUCUAACAAAAAAGACAAAUCUGCCACAAAGCUUGAGAGCAUCUUCGGAUGCAGAGGCGGCAGCCUUCGGUGGCGCGAUAGCGCCAACGUUCUCAACUAUGACACGCAAAACGCGUGCUCCGUUGAAUGGAGUUUAUCAUG

In the data set the parent is B1. Kind of data set: polymerase ribozyme fitness, log enrichment relative to wild type (log ratio); higher = more active; in vitro selection for triplet polymerase activity. In short, it runs like this: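 Streptavidin-bead capture of gel-excised extended constructs, followed by RT-PCR, closed a single triplicate in vitro selection round. That round began by annealing PCR-built, transcribed mutant libraries of each subunit of a heterodimeric triplet polymerase ribozyme with a biotinylated primer, the partner subunit and triplets, then incubating them frozen at −7 °C. After Illumina sequencing of inputs and outputs, genotypes needed ≥10 input reads and ≥1 read per output. Fitness is the base-2 logarithm of genotype enrichment over wild-type enrichment, using inverse-variance-weighted replicate averages.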
G65A G136C A147C: the “polymerase ribozyme fitness (log ratio)” value is -4.13.

With C69U C85U, the “polymerase ribozyme fitness (log ratio)” value is -1.39.

With U61A C99G, the “polymerase ribozyme fitness (log ratio)” value was -3.23.

For the variant C69G C93U, the “polymerase ribozyme fitness (log ratio)” value was -3.1.

Turning to G65C C87G U102A, the “polymerase ribozyme fitness (log ratio)” value was no more than -4.2.

For G62U U145G, the “polymerase ribozyme fitness (log ratio)” value is -0.51.

Take A60C U82A G84U U102G G126U: the “polymerase ribozyme fitness (log ratio)” value is no more than -4.2.

C69U A73U: the “polymerase ribozyme fitness (log ratio)” value is -2.64.

Turning to G68A G83A C116U, the “polymerase ribozyme fitness (log ratio)” value was no more than -4.2.

As for G68A C72A G80C G94A, the “polymerase ribozyme fitness (log ratio)” value is no more than -4.2.

Turning to G62U A106C U146G C149U, the “polymerase ribozyme fitness (log ratio)” value is -3.91.

Take G62U G136A: the “polymerase ribozyme fitness (log ratio)” value was determined as 0.626.

In the case of G62C C79U G141U, the “polymerase ribozyme fitness (log ratio)” value is no more than -4.2.

G65C C85U: the “polymerase ribozyme fitness (log ratio)” value was -4.04.

Regarding U61A C96U, the “polymerase ribozyme fitness (log ratio)” value is -1.32.

With U61A C96A, the “polymerase ribozyme fitness (log ratio)” value was -1.36.

For A66G C96U, the “polymerase ribozyme fitness (log ratio)” value is -3.66.

As to A60C U101G, the “polymerase ribozyme fitness (log ratio)” value was -1.58.

With G71C C129A, the “polymerase ribozyme fitness (log ratio)” value is no more than -4.2.

Regarding A66U G86U C103A A142G, the “polymerase ribozyme fitness (log ratio)” value was no more than -4.2.

Regarding A60U G86A A150C, the “polymerase ribozyme fitness (log ratio)” value is no more than -4.2.

For the variant G62C G143U, the “polymerase ribozyme fitness (log ratio)” value was -3.58.

In the case of G68C A89G G94A A113U, the “polymerase ribozyme fitness (log ratio)” value is no more than -4.2.

Turning to A60G A119C A120U U151C, the “polymerase ribozyme fitness (log ratio)” value was -4.18.

Regarding A66G C85U G86U, the “polymerase ribozyme fitness (log ratio)” value is no more than -4.2.

Regarding C69A C93U U102G A113U G117U U146A C149U, the “polymerase ribozyme fitness (log ratio)” value is no more than -4.2.

Consider C63A G83A U145C A150U, for which the “polymerase ribozyme fitness (log ratio)” value is -0.965.

On to A60G A73G C85A, for which the “polymerase ribozyme fitness (log ratio)” value was -2.02.

For G67U C87G U130A, the “polymerase ribozyme fitness (log ratio)” value is no more than -4.2.

U61A C76U U102G U109C: the “polymerase ribozyme fitness (log ratio)” value was no more than -4.2.

As to C69U G86U C114U G141U, the “polymerase ribozyme fitness (log ratio)” value is no more than -4.2.

For the variant G62A U82A, the “polymerase ribozyme fitness (log ratio)” value is -0.432.

As for U61G A91C C93U C114A G126A U135G, the “polymerase ribozyme fitness (log ratio)” value is no more than -4.2.

On to C63U C75A G86A A89U A106U U134G, for which the “polymerase ribozyme fitness (log ratio)” value is no more than -4.2.

Consider G68A A119U A122U U148A, for which the “polymerase ribozyme fitness (log ratio)” value was no more than -4.2.

A64U C87A C95U U139A: the “polymerase ribozyme fitness (log ratio)” value is no more than -4.2.

For the variant A66G C69U, the “polymerase ribozyme fitness (log ratio)” value was no more than -4.2.

In the case of G62A C93A, the “polymerase ribozyme fitness (log ratio)” value is -1.93.

With G68A C75A G128A A150C, the “polymerase ribozyme fitness (log ratio)” value is no more than -4.2.

Take U61A C108U: the “polymerase ribozyme fitness (log ratio)” value was -3.86.

As to A60G A66C G94U C108U C125U U139C, the “polymerase ribozyme fitness (log ratio)” value was -4.

In the case of G71U A89U C95A, the “polymerase ribozyme fitness (log ratio)” value is -3.94.

As for G67A C87U, the “polymerase ribozyme fitness (log ratio)” value was -4.13.

For the variant C72A A73U C85G A138C U148C, the “polymerase ribozyme fitness (log ratio)” value is no more than -4.2.

For U61G C95G U135C, the “polymerase ribozyme fitness (log ratio)” value was -4.17.

Consider C63U A122U, for which the “polymerase ribozyme fitness (log ratio)” value was determined as 0.751.

Take C69G C96U C103A: the “polymerase ribozyme fitness (log ratio)” value is -3.44.

With G65C G86C, the “polymerase ribozyme fitness (log ratio)” value was no more than -4.2.

Take A60G C85A U101G: the “polymerase ribozyme fitness (log ratio)” value was -2.94.

Turning to G62U U109C C116U C131U A147U, the “polymerase ribozyme fitness (log ratio)” value is -1.94.

Regarding G70C G80A A91U U104C A120U, the “polymerase ribozyme fitness (log ratio)” value is no more than -4.2.

As for G68A C87G G128U, the “polymerase ribozyme fitness (log ratio)” value was no more than -4.2.

With G67U C118U, the “polymerase ribozyme fitness (log ratio)” value is -2.87.

Take A60U A64C A89U C116G G133C A147C U148C: the “polymerase ribozyme fitness (log ratio)” value is no more than -4.2.

For C72A C125U, the “polymerase ribozyme fitness (log ratio)” value was no more than -4.2.

On to G65A G84U, for which the “polymerase ribozyme fitness (log ratio)” value was -2.89.

As to A64C G71A U144G U148G, the “polymerase ribozyme fitness (log ratio)” value was no more than -4.2.

In the case of C69U G84A A115G G117U G136C, the “polymerase ribozyme fitness (log ratio)” value is no more than -4.2.

For the variant G68A U130C, the “polymerase ribozyme fitness (log ratio)” value is -3.95.

As to C69U G83A, the “polymerase ribozyme fitness (log ratio)” value was -3.04.

Turning to C69U G83U, the “polymerase ribozyme fitness (log ratio)” value is -0.933.

Regarding G68C G83C, the “polymerase ribozyme fitness (log ratio)” value was no more than -4.2.

Take G70C G80A: the “polymerase ribozyme fitness (log ratio)” value was -3.94.

For the variant G65A C96U G112C A115G U144A, the “polymerase ribozyme fitness (log ratio)” value was no more than -4.2.

Regarding U61G G94A C108G, the “polymerase ribozyme fitness (log ratio)” value was no more than -4.2.

With U61G C85A G143C, the “polymerase ribozyme fitness (log ratio)” value was -3.43.

C69U C96A: the “polymerase ribozyme fitness (log ratio)” value is -1.12.

Regarding G70C C87A G140A, the “polymerase ribozyme fitness (log ratio)” value is no more than -4.2.

As to A60G G67U G86A, the “polymerase ribozyme fitness (log ratio)” value is -4.13.

Regarding G68C C93U G140A A147G, the “polymerase ribozyme fitness (log ratio)” value was no more than -4.2.

Take A60G G100A U151G: the “polymerase ribozyme fitness (log ratio)” value was no more than -4.2.

As for G67A C87A A98U, the “polymerase ribozyme fitness (log ratio)” value is no more than -4.2.

Turning to G62C G94A G133C G141U, the “polymerase ribozyme fitness (log ratio)” value is -3.95.

Consider A66G U78G U90C U135G, for which the “polymerase ribozyme fitness (log ratio)” value is no more than -4.2.

In the case of A60C U61A C69G G74A U146G A150C, the “polymerase ribozyme fitness (log ratio)” value is no more than -4.2.

Turning to G62C C76U U139G, the “polymerase ribozyme fitness (log ratio)” value is -3.09.

Turning to G65A C85U A137U U139A G140A G152A, the “polymerase ribozyme fitness (log ratio)” value was -3.3.

In the case of U61G G88A, the “polymerase ribozyme fitness (log ratio)” value was -4.18.

With U61A A107C G128U U139A, the “polymerase ribozyme fitness (log ratio)” value was no more than -4.2.

As to G62U C116U, the “polymerase ribozyme fitness (log ratio)” value came to 0.138.

Take U61A C69U A98U: the “polymerase ribozyme fitness (log ratio)” value was -2.9.

Consider C63G A98U C99U, for which the “polymerase ribozyme fitness (log ratio)” value was 0.639.

In the case of G71C U111G, the “polymerase ribozyme fitness (log ratio)” value is no more than -4.2.
